The subject of the data set is hybrid GFP construct containing the protease cleavage sequence SVPSGCG (SEQ ID NO:21) followed by histidine residues.

As for Pepsin, the Micrograms of GFP Released by Protease (overnight, IMAC beads, pH 8.0) was found to be 0 µg.
Trypsin: the % GFP Released (60 minutes, 37° C.) was found to be 4.6%; the Micrograms of GFP Released by Protease (overnight, IMAC beads); Trypsin (Sample 1) is 9 µg; the Micrograms of GFP Released by Protease (overnight, IMAC beads); Trypsin (Sample 2) stood at 56 µg; the µg GFP Released by Protease (60 minutes, 37° C.) amounted to 4.07 µg.
With Chymotrypsin, the % GFP Released (60 minutes, 37° C.) was determined as 11%; the Micrograms of GFP Released by Protease (overnight, IMAC beads) is 47 µg; the µg GFP Released by Protease (60 minutes, 37° C.) was 10.6 µg.
With Crude Bromelain, the Micrograms of GFP Released by Protease (overnight, IMAC beads) stood at 86 µg.
Consider Elastase, for which the Micrograms of GFP Released by Protease (overnight, IMAC beads) was 94 µg and the “release of GFP from beads, worded” value is on record as “The most effective enzyme was elastase, with positive results apparent within five minutes after adding the enzyme”.

(Values after patent US20080241867.)
